Assays:
[1] = biological target: T1, human IgE CH3-CH4-M1′/Fc fusion protein (human); assay: SPR Biacore A100, M1′ immobilized
T1 construct: also called M1′ (immobilized)

[2] = biological target: T1, human IgE CH3-CH4-M1′/Fc fusion protein; assay: SPR Biacore 2000, IgG immobilized, M1′-Fc analyte
[3] = biological target: T2, human IgE with the M1′ sequence (long form of membrane IgE) expressed on transduced BJAB or Daudi cells (human, UniProt P01854 116-546); assay: competitive ECL binding on BJAB-IgE/M1′ cells vs biotinylated 26A11 or 47H4, 2nd IC50 column
T2 construct: Full-length heavy and light chains of the U266 IgE B cell receptor, retrovirally expressed; also called IgE/M1′; IgE-M1′

[4] = biological target: T2, human IgE with the M1′ sequence (long …); assay: Scatchard analysis on cells expressing human IgE/M1′
Description: The BJAB or Daudi cells expressing various forms of IgE with or without M1′ (Human, Rhesus, Cyno) were prepared for binding in cold Binding buffer composed of base media, with 10 mM HEPES pH 7.4, and 2% FBS as well as 40 ug/ml human IgG. Cells are diluted to concentration of 1.7×10⁶ cells/ml, and kept on ice until they are added to the assay. The proteins/antibodies are iodinated with the Iodogen method. Various concentrations of cold protein are prepared in triplicate, using a 1:2 dilution starting with the saturation concentration and ending at a concentration of zero, with a total of 14 concentrations. Hot protein of a single concentration is added to all dilutions compete with the cold protein. Lastly the cells are added to the hot and cold protein mixture, 250,000 cells per sample were used. Assay is kept at 4° C. for 4 hours, shaking. Each sample is then collected and filtered on membrane, washed at least 3 times with binding buffer, allowed to dry and then counted for 1 minute using Perkin Elmer Wizard 1470 Auto Gamma Counter.

[5] = biological target: T2, human IgE with the M1′ sequence (long …); assay: competitive ECL binding on BJAB-IgE/M1′ cells vs biotinylated 26A11 or 47H4, 1st IC50 column
[6] = biological target: T1, human IgE CH3-CH4-M1′/Fc fusion protein; assay: SPR Biacore 2000, M1′-Fc immobilized

T1 sequence (chain, as listed by the source limits assumed): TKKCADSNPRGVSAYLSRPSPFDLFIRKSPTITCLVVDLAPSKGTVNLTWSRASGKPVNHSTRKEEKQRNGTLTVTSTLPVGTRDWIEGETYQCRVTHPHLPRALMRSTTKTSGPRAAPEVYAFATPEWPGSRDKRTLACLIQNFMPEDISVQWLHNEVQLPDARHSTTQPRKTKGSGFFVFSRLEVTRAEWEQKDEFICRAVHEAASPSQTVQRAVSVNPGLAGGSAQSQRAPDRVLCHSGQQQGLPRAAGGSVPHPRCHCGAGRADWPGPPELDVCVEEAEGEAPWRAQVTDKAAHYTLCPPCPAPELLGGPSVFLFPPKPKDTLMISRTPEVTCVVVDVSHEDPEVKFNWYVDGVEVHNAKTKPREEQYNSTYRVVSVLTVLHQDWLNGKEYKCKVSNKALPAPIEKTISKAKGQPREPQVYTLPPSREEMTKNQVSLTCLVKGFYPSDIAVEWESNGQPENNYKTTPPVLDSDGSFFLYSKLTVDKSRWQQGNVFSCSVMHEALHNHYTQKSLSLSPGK
T2 sequence (P01854 116-546 I515L limits assumed): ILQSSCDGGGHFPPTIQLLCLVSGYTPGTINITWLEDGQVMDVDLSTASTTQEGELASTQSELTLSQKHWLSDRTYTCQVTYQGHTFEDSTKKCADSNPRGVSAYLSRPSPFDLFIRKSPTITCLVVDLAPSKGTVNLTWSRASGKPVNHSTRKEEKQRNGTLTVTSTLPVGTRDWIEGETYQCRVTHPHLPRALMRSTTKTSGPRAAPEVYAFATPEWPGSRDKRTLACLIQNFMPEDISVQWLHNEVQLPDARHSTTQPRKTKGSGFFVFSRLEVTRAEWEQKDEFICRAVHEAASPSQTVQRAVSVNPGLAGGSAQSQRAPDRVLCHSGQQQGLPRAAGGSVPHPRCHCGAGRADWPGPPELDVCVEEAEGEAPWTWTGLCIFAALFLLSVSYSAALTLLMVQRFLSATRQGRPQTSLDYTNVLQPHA

Binder	Kd [1] [nM]	Kd [2] [nM]	IC50 [3] [nM]	Kd [4] [nM]	IC50 [5] [nM]	Kd [6] [nM]
humanized anti-IgE/M1′ antibody 47H4.v1 (antibody, V domains shown, direct CDR graft, produced as IgG) VH: EVQLVESGGGLVQPGGSLRLSCAASGFTFSDYGMAWVRQAPGKGLEWVAFISDLAYTIYYADTVTGRFTISRDNSKNTLYLQMNSLRAEDTAVYYCARDNWDAMDYWGQGTLVTVSS VL: DIQMTQSPSSLSASVGDRVTITCRSSQSLVHNNGNTYLHWYQQKPGKAPKLLIYKVSNRFSGVPSRFSGSGSGTDFTLTISSLQPEDFATYYCSQNTLVPWTFGQGTKVEIKR	7.8	3.1	18	0.37	12	–
humanized anti-IgE/M1′ antibody 47H4.v3 (antibody, V domains shown, produced as IgG) VH: EVQLVESGGGLVQPGGSLRLSCAASGFTFSDYGIAWVRQAPGKGLEWVAFISDLAYTIYYADTVTGRFTISRDNSKNTLYLQMNSLRAEDTAVYYCARDNWDALDYWGQGTLVTVSS VL: DIQMTQSPSSLSASVGDRVTITCRSSQSLVHNNGNTYLHWYQQKPGKAPKLLIYKVSNRFSGVPSRFSGSGSGTDFTLTISSLQPEDFATYYCSQNTLVPWTFGQGTKVEIKR	69	–	–	–	~7600	–
humanized anti-IgE/M1′ antibody 47H4.v4 (antibody, V domains shown, produced as IgG) VH: EVQLVESGGGLVQPGGSLRLSCAASGFTFSDYGIAWVRQAPGKGLEWVAFISDLAYTIYYADTVTGRFTISRDNSKNTLYLQMNSLRAEDTAVYYCARDNWDALDYWGQGTLVTVSS VL: DIQMTQSPSSLSASVGDRVTITCRSSQSLVHNNANTYLHWYQQKPGKAPKLLIYKVSNRFSGVPSRFSGSGSGTDFTLTISSLQPEDFATYYCSQNTLVPWTFGQGTKVEIKR	56	–	–	–	–	–
humanized anti-IgE/M1′ antibody 26A11.v1 (antibody, V domains shown, direct CDR graft, produced as IgG in 293 cells) VH: EVQLVESGGGLVQPGGSLRLSCAASGYTFTDYYMMWVRQAPGKGLEWVGDINPNNYDTSYNQKFKGRFTISADTSKNTAYLQMNSLRAEDTAVYYCASKAYWGQGTLVTVSS VL: DIQMTQSPSSLSASVGDRVTITCRSSQDISNSLNWYQQKPGKAPKLLIYSTSRLHSGVPSRFSGSGSGTDFTLTISSLQPEDFATYYCQQGHTLPWTFGQGTKVEIKR	0.2	9	19	1.06	15	1.7
humanized anti-IgE/M1′ antibody 26A11.v4 (antibody, V domains shown, produced as IgG) VH: EVQLVESGGGLVQPGGSLRLSCAASGYTFTDYYIMWVRQAPGKGLEWVGDINPNNYDTSYNQKFKGRFTISADTSKNTAYLQMNSLRAEDTAVYYCASKAYWGQGTLVTVSS VL: DIQMTQSPSSLSASVGDRVTITCRSSQDISNSLNWYQQKPGKAPKLLIYSTSRLHSGVPSRFSGSGSGTDFTLTISSLQPEDFATYYCQQGHTLPWTFGQGTKVEIKR	0.9	–	29	–	20	–
humanized anti-IgE/M1′ antibody 26A11.v5 (antibody, V domains shown, produced as IgG) VH: EVQLVESGGGLVQPGGSLRLSCAASGYTFTDYYIMWVRQAPGKGLEWVGDINPNNYDTSYNQKFKGRFTISADTSKNTAYLQMNSLRAEDTAVYYCASKAYWGQGTLVTVSS VL: DIQMTQSPSSLSASVGDRVTITCRSSQDISNALNWYQQKPGKAPKLLIYSTSRLHSGVPSRFSGSGSGTDFTLTISSLQPEDFATYYCQQGHTLPWTFGQGTKVEIKR	–	–	35	–	25	–

Continued, values first:

Kd [1] [nM]	Kd [2] [nM]	IC50 [3] [nM]	Kd [4] [nM]	IC50 [5] [nM]	Kd [6] [nM]	Binder
7.4	2.8	–	0.54	38	–	humanized anti-IgE/M1′ antibody 47H4.v2 (antibody, V domains shown, produced as IgG) VH: EVQLVESGGGLVQPGGSLRLSCAASGFTFSDYGMAWVRQAPGKGLEWVAFISDLAYTIYYADTVTGRFTISRDNSKNTLYLQMNSLRAEDTAVYYCARDNWDAMDYWGQGTLVTVSS VL: DIQMTQSPSSLSASVGDRVTITCRSSQSLVHNNANTYLHWYQQKPGKAPKLLIYKVSNRFSGVPSRFSGSGSGTDFTLTISSLQPEDFATYYCSQNTLVPWTFGQGTKVEIKR
0.3	–	–	–	18	–	humanized anti-IgE/M1′ antibody 26A11.v2 (antibody, V domains shown, produced as IgG) VH: EVQLVESGGGLVQPGGSLRLSCAASGYTFTDYYMMWVRQAPGKGLEWVGDINPNNYDTSYNQKFKGRFTISADTSKNTAYLQMNSLRAEDTAVYYCASKAYWGQGTLVTVSS VL: DIQMTQSPSSLSASVGDRVTITCRSSQDISNALNWYQQKPGKAPKLLIYSTSRLHSGVPSRFSGSGSGTDFTLTISSLQPEDFATYYCQQGHTLPWTFGQGTKVEIKR
–	–	19	–	–	4	humanized anti-IgE/M1′ antibody 26A11.v13 (antibody, V domains shown, produced as IgG) VH: EVQLVESGGGLVQPGGSLRLSCAASGYTFTDYYMMWVRQAPGKGLEWVGDINPNNYDTSYNQKFKGRFTISADTSKNTAYLQMNSLRAEDTAVYYCASKAYWGQGTLVTVSS VL: DIQMTQSPSSLSASVGDRVTITCRSSQDISSSLNWYQQKPGKAPKLLIYSTSRLHSGVPSRFSGSGSGTDFTLTISSLQPEDFATYYCQQGHTLPWTFGQGTKVEIKR
–	–	32	–	–	8.4	humanized anti-IgE/M1′ antibody 26A11.v15 (antibody, V domains shown, produced as IgG) VH: EVQLVESGGGLVQPGGSLRLSCAASGYTFTDYYIMWVRQAPGKGLEWVGDINPNNYDTSYNQKFKGRFTISADTSKNTAYLQMNSLRAEDTAVYYCASKAYWGQGTLVTVSS VL: DIQMTQSPSSLSASVGDRVTITCRSSQDISSSLNWYQQKPGKAPKLLIYSTSRLHSGVPSRFSGSGSGTDFTLTISSLQPEDFATYYCQQGHTLPWTFGQGTKVEIKR
–	–	27	–	–	8.8	humanized anti-IgE/M1′ antibody 26A11.v16 (antibody, V domains shown, produced as IgG) VH: EVQLVESGGGLVQPGGSLRLSCAASGYTFTDYYIMWVRQAPGKGLEWVGDINPNNYDTSYNQKFKGRFTISADTSKNTAYLQMNSLRAEDTAVYYCASKAYWGQGTLVTVSS VL: DIQMTQSPSSLSASVGDRVTITCRSSQDISQSLNWYQQKPGKAPKLLIYSTSRLHSGVPSRFSGSGSGTDFTLTISSLQPEDFATYYCQQGHTLPWTFGQGTKVEIKR
< 0.05	–	22	–	10	2.8	humanized anti-IgE/M1′ antibody 26A11.v3 (antibody, V domains shown, produced as IgG) VH: EVQLVESGGGLVQPGGSLRLSCAASGYTFTDYYMMWVRQAPGKGLEWVGDINPNNYDTSYNQKFKGRFTISADTSKNTAYLQMNSLRAEDTAVYYCASKAYWGQGTLVTVSS VL: DIQMTQSPSSLSASVGDRVTITCRSSQDISNYLNWYQQKPGKAPKLLIYSTSRLHSGVPSRFSGSGSGTDFTLTISSLQPEDFATYYCQQGHTLPWTFGQGTKVEIKR
–	–	19	1.5	–	3.9	humanized anti-IgE/M1′ antibody 26A11.v14 (antibody, V domains shown, produced as IgG) VH: EVQLVESGGGLVQPGGSLRLSCAASGYTFTDYYMMWVRQAPGKGLEWVGDINPNNYDTSYNQKFKGRFTISADTSKNTAYLQMNSLRAEDTAVYYCASKAYWGQGTLVTVSS VL: DIQMTQSPSSLSASVGDRVTITCRSSQDISQSLNWYQQKPGKAPKLLIYSTSRLHSGVPSRFSGSGSGTDFTLTISSLQPEDFATYYCQQGHTLPWTFGQGTKVEIKR
